Reference: US20090118161A1 (BAYLOR COLLEGE OF MEDICINE, published 2009)
Each block holds one binder with its values, some of them ahead of it.

Assays:
[1] = molecular target: T1, recombinant human vimentin (human, UniProt P08670 1-466, limits assumed); experiment: ELISA, A2 fragments on immobilized vimentin
T1 construct: also called immobilized vimentin

[2] = molecular target: T2, recombinant VWF-A1 domain polypeptide (amino acids Q1238-P1471) (human, UniProt P04275 1238-1471); experiment: ELISA, increasing A2 on immobilized A1 polypeptide, Anti-A2 detection; half-maximal binding
T2 construct: range 1238-1471; Expressed in E. coli with an N-terminal His tag; also called A1 polypeptide; A1 protein; not shown: N-terminal His tag from the vector

[3] = molecular target: T1, recombinant human vimentin; experiment: ELISA, A2 on immobilized recombinant human vimentin, detected with Anti-A2 or VP-1
[4] = molecular target: T2, recombinant VWF-A1 domain polypeptide …; experiment: inhibition by A2 of binding of A1 domain (0.25 µM) to immobilized fixed platelets (GPIbα), static conditions
[5] = molecular target: T3, multimeric von Willebrand factor purified from plasma or cryoprecipitate (UniProt P04275 764-2813); experiment: binding of A2 to immobilized full length VWF; half-maximal binding
T3 construct: mature; Disulfide-linked multimer of many subunits; number of subunits not fixed; Glycosylated; also called VWF; full length VWF

polymerized human fibrin = molecular target: T4, polymerized human fibrin (human, UniProt P02671 36-629; P02675 45-491; P02679 27-437, limits assumed); experiment: ELISA, increasing A2 on immobilized polymerized human fibrin, anti-His detection; half-maximal binding
T4 construct: Immobilized polymerized fibrin; preparation not described
T4 sequence (looked up) 1: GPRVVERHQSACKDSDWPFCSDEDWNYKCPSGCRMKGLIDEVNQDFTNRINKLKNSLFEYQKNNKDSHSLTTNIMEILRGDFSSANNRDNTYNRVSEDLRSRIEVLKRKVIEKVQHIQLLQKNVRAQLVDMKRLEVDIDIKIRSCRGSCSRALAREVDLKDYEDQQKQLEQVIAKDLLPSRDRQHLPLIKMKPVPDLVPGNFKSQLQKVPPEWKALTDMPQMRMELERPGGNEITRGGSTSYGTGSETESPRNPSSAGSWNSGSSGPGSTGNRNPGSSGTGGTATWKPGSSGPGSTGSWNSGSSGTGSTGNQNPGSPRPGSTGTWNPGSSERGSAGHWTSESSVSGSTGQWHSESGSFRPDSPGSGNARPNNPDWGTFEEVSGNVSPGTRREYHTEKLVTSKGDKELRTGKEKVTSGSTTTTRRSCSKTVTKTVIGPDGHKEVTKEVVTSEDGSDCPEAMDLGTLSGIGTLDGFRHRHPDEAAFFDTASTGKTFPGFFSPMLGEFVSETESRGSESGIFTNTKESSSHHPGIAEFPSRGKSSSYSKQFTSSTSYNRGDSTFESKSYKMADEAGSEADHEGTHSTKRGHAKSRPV
T4 sequence (looked up) 2: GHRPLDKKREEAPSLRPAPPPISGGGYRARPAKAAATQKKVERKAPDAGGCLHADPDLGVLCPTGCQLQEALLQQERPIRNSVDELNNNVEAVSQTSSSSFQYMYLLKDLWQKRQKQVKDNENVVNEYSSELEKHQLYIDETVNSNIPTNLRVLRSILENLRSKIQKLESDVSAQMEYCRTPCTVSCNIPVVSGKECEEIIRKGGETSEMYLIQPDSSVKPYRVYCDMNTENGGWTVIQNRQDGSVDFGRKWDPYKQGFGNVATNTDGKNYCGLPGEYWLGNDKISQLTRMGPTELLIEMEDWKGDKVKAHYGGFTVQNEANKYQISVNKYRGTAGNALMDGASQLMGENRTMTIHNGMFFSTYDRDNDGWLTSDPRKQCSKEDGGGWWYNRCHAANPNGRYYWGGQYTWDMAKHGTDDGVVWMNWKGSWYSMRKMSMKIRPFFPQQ
T4 sequence (looked up) 3: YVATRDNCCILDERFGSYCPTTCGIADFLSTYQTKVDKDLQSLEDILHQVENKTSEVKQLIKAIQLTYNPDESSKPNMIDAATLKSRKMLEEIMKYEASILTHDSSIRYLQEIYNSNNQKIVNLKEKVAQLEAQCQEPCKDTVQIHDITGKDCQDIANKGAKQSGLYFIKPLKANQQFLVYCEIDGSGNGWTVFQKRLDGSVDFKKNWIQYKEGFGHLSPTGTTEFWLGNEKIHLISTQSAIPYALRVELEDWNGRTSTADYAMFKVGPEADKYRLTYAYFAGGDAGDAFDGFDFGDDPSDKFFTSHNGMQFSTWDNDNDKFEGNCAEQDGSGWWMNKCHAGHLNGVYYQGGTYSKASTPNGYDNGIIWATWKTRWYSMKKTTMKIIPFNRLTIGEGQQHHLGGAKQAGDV

[6] = molecular target: T3, multimeric von Willebrand factor …; experiment: ELISA, A2 on immobilized VWF; apparent KD
[7] = molecular target: T2, recombinant VWF-A1 domain polypeptide …; experiment: binding of A2 to immobilized A1 domain polypeptide; half-maximal binding
[8] = molecular target: T2, recombinant VWF-A1 domain polypeptide …; experiment: binding of A2 to A1 domain polypeptide; half-maximal binding
[9] = molecular target: T3, multimeric von Willebrand factor …; experiment: binding of A2 to full length VWF; half-maximal binding
[10] = molecular target: T2, recombinant VWF-A1 domain polypeptide …; experiment: ELISA, A2 on immobilized A1; apparent KD
[11] = molecular target: T5, immobilized human fibrinogen (human, UniProt P02671 20-629; P02675 31-491; P02679 27-437, limits assumed); experiment: ELISA, increasing A2 on immobilized human fibrin(ogen), anti-His detection; half-maximal binding
T5 sequence (looked up) 1: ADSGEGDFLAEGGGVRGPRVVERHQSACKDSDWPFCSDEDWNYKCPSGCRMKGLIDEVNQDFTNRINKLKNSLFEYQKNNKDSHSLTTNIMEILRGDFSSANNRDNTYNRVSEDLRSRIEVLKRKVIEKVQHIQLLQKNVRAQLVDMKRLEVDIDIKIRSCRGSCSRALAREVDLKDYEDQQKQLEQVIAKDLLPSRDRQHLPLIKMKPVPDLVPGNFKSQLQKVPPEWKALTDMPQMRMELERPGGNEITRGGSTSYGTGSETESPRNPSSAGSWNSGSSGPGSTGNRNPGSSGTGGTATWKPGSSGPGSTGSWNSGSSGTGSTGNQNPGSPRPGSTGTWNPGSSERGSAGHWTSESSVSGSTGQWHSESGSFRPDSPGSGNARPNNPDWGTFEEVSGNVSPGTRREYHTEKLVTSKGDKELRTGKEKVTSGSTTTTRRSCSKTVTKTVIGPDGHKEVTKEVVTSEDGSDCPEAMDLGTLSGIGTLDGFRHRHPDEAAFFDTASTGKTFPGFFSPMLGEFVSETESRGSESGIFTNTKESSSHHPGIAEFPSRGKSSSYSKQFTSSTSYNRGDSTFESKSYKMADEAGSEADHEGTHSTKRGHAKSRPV
T5 sequence (looked up) 2: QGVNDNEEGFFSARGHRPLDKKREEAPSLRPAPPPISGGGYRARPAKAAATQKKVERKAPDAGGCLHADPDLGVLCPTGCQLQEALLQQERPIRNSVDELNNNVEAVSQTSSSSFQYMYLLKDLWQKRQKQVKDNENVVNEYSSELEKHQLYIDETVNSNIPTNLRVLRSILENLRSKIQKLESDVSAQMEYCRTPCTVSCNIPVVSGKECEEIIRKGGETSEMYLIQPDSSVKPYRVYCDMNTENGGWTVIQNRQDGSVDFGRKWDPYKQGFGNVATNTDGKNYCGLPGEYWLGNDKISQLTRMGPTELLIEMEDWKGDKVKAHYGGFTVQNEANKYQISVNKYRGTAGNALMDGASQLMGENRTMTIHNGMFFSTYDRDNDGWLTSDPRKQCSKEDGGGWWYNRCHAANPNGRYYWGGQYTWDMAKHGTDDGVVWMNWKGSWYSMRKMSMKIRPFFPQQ
T5 sequence (looked up) 3: T4 sequence (looked up) 3

[12] = molecular target: T3, multimeric von Willebrand factor …; experiment: ELISA, increasing A2 on immobilized plasma VWF, anti-His detection; half-maximal binding

T1 sequence (P08670 whole entry, the tested form may be a part): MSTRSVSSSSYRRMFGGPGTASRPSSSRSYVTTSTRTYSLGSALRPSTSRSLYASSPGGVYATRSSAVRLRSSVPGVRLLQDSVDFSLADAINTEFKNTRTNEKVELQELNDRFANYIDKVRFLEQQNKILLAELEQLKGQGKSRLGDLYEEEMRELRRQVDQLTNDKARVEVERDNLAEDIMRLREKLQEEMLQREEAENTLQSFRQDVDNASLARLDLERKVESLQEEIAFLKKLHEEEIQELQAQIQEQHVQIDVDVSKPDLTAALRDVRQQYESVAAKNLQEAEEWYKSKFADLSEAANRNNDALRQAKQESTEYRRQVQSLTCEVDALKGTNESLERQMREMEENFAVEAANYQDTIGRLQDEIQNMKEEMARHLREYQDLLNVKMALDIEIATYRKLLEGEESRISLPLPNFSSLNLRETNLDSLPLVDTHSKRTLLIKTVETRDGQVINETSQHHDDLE

binding result [1]: binds
B1: N-terminal fragment polypeptide of A2 (A2 G1481-Y1605) (other)
chain: GLLGVSTLGPKRNSMVLDVAFVLEGSDKIGEADFNRSKEFMEEVIQRMDVGQDSIHVTVLQYSYMVTVEYPFSEAQSKGDILQRVREIRYQGGNRTNTGLALRYLSDHSFLVSQGDREQAPNLVY
notes: Expressed in bacteria; also called N-terminal (half) of the A2 domain of VWF

EC50 [2]: ~65 nM
binding result [3]: binds
IC50 [4]: 300 nM
EC50 [5]: 190 nM
EC50 (polymerized human fibrin): 150 nM
Kd [6]: ~200 nM
EC50 [7]: 65 nM
EC50 [8]: 60 nM
EC50 [9]: 160 nM
Kd [10]: ~50 nM
EC50 [11]: 150 nM
EC50 [12]: ~200 nM
B2: recombinant VWF-A2 domain polypeptide (amino acids G1481-R1668) (other)
chain: GLLGVSTLGPKRNSMVLDVAFVLEGSDKIGEADFNRSKEFMEEVIQRMDVGQDSIHVTVLQYSYMVTVEYPFSEAQSKGDILQRVREIRYQGGNRTNTGLALRYLSDHSFLVSQGDREQAPNLVYMVTGNPASDEIKRLPGDIQVVPIGVGPNANVQELERIGWPNAPILIQDFETLPREAPDLVLQR
notes: Expressed in E. coli as a fusion protein with a His tag at the N terminus; monomeric on SDS-PAGE; also called A2 protein; VWF-A2 protein; not shown: N-terminal His tag from the vector
